We go through one molecule from patent US20020031818A1, “Modification of Mdm2 activity” (priority 2000, published 2002).

The subject of the assay is p53 transcriptional activity. As to the kind of experiment: p21-luc luciferase reporter assay in EJ cells. The note with it: EJ cells transfected with p53, p19ARF and p21 promoter luciferase construct. It counts as cell-based, mouse. The source says:
FIG. 14A-14E. A. In vitro ubiquitination of Mdm2 is inhibited by p19^ARF. GST-Mdm2 was subjected to an in vitro ubiquitination reaction using purified forms of E1, E2 and Ub-HA in the presence of ATP. Addition of bacculovirus-purified p19^ARF at the indicated concentrations blocked Mdm2 ubiquitination. Glutathione bead-coupled GST-Mdm2 in its ubiquitinated or non-ubiquitinated forms was washed and analyzed on immunoblots using antibodies to HA (upper panel). Middle panel depicts the level of Mdm2 expression and the lower panel, the level of p19^ARF added to the reaction. B. p19^ARF expression increases Mdm2 self-ubiquitination in EJ cells. EJ cells were transfected with the indicated plasmids. Cells were harvested 36 h later and proteins ([…]) were immunoprecipitated using Mdm2 antibodies (2A10). […] The level of p53 immunoprecipitated was monitored in immunoblots using polyclonal antibodies to p53 (middle). […]
Non-denaturing immunoprecipitation and luciferase assay p53/Mdm2 double null cells (Fuch et al., Oncogene 17:2543-2547, 1998), EJ, NIH3T3 mouse fibroblasts and TIG human fibroblasts were maintained in DMEM (Gibco) supplemented with 10% heat-inactivated fetal bovine serum and antibiotics in 5% CO2 Transfections were performed by lipofection (LipofectaminPlus, GIBCO). […] Luciferase activity was determined using the Promega luciferase assay system (Promega, Madison, Wis.). […]

B1: p19^ARF: Mdm2-regulating protein; in vitro translated, bacculovirus-expressed or transfected (protein)
chain: MGRRFLVTVRIQRAGRPLQERVFLVKFVRSRRPRTASCALAFVNMLLRLERILRRGPHRNPGPGDDDGQRSRSSSSAQLRCRFELRGPHYLLPPGARRSAGRLPGHAGGAARVRGSAGCARCLGSPAARLGPRAGTSRHRAIFAFRWVLFVFRWVVFVYRWERRPDRRA
On to B1, for which the “p53 transcriptional activity (p21-luc)” value was “corresponding increase”.
